Experimental data taken from US20090214427A1, “Novel peptides” (Licentia OY, priority 2004, published 2009).
Positions of bridges follow the written chain, without caps; N, C: chain ends. No end group written: not given here.

Assays:
hK2 [1] = target: T1, hK2 (Homo sapiens, UniProt P20151); test: Effect of the peptides on the enzyme activity of hK2 (chromogenic substrate S-2302); assay type: biochemical; settings: for inhibition (percent inhibition of hK2): enzymatic activity of hK2, chromogenic substrate, 405 nm; for inhibition of hK2 enzyme activity: 0.17 μM hK2, 100-fold molar excess of peptide; for effect on the enzyme activity of hK2: incubation of hK2 with synthetic peptide (FIG. 2)
T1 construct: made in house
T1 sequence (P20151 25-261): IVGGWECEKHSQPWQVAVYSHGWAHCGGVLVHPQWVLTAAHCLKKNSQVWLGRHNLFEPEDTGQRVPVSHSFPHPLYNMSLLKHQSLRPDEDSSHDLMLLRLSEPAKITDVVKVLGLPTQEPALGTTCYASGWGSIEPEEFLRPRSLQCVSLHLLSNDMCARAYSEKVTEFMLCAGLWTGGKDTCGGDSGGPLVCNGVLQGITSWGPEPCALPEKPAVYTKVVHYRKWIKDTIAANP
Method: “Inhibition”, as used in the present context, stands for an inhibitory action on the proteolytic activity of hK2.
(§1) The effect of the peptides on the enzyme activity of hK2 was studied by using the chromogenic substrate S-2302 (H-D-Pro-Phe-Arg-pNA). HK2 (0.17 μM) was incubated with a 100-1000-fold molar excess of synthetic peptides in 20 mM Tris-buffer pH 8.0 containing 0.1% BSA for 30 minutes at room temperature. After addition of the substrate to a final concentration of 0.2 mM the absorbance was monitored at 405 nm at 5-10 min intervals for 1 h on a Victor 1420 Multilabel fluorometer (PerkinElmer-Wallac, Turku, Finland)

plasma kallikrein = target: T2, plasma kallikrein (Homo sapiens, UniProt P03952); test: Specificity: effect on enzyme activity of plasma kallikrein (substrate S-2302); assay type: biochemical
T2 construct: Human plasmin, thrombin and plasma kallikrein were from Sigma; purchased Sigma
T2 sequence (P03952 20-390 partner limits assumed): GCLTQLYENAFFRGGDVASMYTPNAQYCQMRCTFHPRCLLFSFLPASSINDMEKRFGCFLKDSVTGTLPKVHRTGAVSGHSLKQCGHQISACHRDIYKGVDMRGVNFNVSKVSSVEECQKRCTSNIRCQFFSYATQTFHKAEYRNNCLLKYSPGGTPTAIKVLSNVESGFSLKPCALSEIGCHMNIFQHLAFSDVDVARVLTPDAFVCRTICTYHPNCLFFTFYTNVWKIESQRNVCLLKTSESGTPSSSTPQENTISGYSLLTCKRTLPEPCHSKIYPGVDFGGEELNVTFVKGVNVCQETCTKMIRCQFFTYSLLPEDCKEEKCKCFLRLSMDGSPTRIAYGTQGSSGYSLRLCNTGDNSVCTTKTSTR
T2 sequence (P03952 391-638 limits assumed): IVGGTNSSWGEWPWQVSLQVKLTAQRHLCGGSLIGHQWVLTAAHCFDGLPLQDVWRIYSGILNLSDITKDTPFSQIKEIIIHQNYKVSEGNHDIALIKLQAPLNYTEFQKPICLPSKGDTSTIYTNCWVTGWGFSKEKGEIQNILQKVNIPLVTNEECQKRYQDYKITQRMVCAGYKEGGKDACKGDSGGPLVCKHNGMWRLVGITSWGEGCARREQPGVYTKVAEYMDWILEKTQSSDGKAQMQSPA
Method: as §1
(§2) The specificity of the peptides was analyzed by studying their effect on the activity of other serine proteases including α-chylotrypsin, bovine trypsin, human trypsin 1, trypsin 2 and trypsin 3, urokinase, thrombin, plasmin, plasma kallikrein and PSA. The assay was as described above for hK2 except that the substrate for PSA and α-chymotrypsin was S-2586 (MeO-Suc-Arg-Pro-Tyr-pNA)(Chromogenix), S-2444 for urokinase, S-2238 for thrombin, S-2403 for plasmin, S-2302 for plasma kallikrein and that for various forms of trypsin was S-2222 (CO-Ile-Glu-(OR)-Gly-Arg-pNA)(Chromogenix).

hK2 [2] = target: T1, hK2; test: Cross-inhibition test: inhibition of phage binding to captured hK2 by synthetic peptides (IFMA); settings: synthetic peptide 5 μM, FIG. 1
Method: The phage IFMA was performed essentially as described (Wu, Leinonen et al. 2000). In this assay, 50 ng of hK2 in 200 μL of assay buffer was captured onto wells coated with MAb 5E4. After washing, 2.5 μL of phage (10^8-10^9 infectious particles) and 200 μL assay buffer were added to wells. After incubation for 1 h, the wells were washed and filled with 200 μL of assay buffer containing 100 ng Eu-labeled anti-phage polyclonal antibody recognizing the M13 coat protein of the phage. After incubation for 60 min, the wells were washed 4 times, and enhancement solution (Perkin Elmer-Wallac) was added. The fluorescence was quantified with a Victor fluorometer in time resolved mode (Perkin Elmer-Wallac).
The relative binding sites of the peptides on hK2 were mapped by competition experiments with chemically synthesized and phage peptides. The protocol was based on the IFMA method described above except that phages and the synthetic peptides were reacted together with hK2. Briefly, each of the synthetic peptides at 5 μM concentration was added into the wells in which hK2 had been captured by MAb 5E4. After incubation for 30 min each phage was added. After 1 h incubation, the wells were washed and the assay was as described above for IFMA.

PSA = target: T3, PSA (Homo sapiens, UniProt P07288); test: Specificity: effect on enzyme activity of PSA (substrate S-2586); assay type: biochemical
T3 construct: PSA was purified from human seminal plasma as described (Zhang et al. 1995); from tissue; host or cells: human seminal plasma
T3 sequence (P07288 25-261): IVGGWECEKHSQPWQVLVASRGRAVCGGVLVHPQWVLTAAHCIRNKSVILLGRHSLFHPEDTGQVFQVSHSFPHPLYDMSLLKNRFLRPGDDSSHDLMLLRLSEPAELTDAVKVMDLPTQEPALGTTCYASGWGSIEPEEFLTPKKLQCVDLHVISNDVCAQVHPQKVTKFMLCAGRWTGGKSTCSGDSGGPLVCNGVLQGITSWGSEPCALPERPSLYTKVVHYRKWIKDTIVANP
Method: as §1, §2

human trypsin 1 = target: T4, human trypsin 1 (Homo sapiens, UniProt P07477); test: Specificity: effect on enzyme activity of human trypsin 1 (substrate S-2222); assay type: biochemical
T4 construct: made in house
Method: as §1, §2

α-chymotrypsin = test: Specificity: effect on enzyme activity of α-chymotrypsin (substrate S-2586); assay type: biochemical
Method: as §1, §2

bovine trypsin = target: T5, bovine trypsin (Bos taurus, UniProt P00760); test: Specificity: effect on enzyme activity of bovine trypsin (substrate S-2222); assay type: biochemical
T5 construct: purchased Athens Research and Technology, Athens, Ga., USA
T5 sequence (P00760 24-246): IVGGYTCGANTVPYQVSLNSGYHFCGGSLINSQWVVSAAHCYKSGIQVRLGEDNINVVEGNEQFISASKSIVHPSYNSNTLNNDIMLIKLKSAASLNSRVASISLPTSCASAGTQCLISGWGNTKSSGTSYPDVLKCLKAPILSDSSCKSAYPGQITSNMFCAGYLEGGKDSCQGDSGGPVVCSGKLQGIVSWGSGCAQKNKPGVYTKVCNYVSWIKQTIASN
Method: as §1, §2

trypsin 2 = target: T6, trypsin 2 (Homo sapiens, UniProt P07478); test: Specificity: effect on enzyme activity of human trypsin 2 (substrate S-2222); assay type: biochemical
T6 construct: made in house
T6 sequence (P07478 24-247): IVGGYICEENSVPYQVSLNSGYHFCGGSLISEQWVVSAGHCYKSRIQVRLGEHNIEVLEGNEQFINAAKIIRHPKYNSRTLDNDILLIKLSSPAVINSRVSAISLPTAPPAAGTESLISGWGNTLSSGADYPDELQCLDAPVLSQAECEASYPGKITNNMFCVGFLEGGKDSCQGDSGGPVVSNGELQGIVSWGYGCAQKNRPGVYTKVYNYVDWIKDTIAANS
Method: as §1, §2

trypsin 3 = target: T7, trypsin 3 (Homo sapiens, UniProt P35030); test: Specificity: effect on enzyme activity of human trypsin 3 (substrate S-2222); assay type: biochemical
T7 construct: made in house
T7 sequence (P35030 1-304): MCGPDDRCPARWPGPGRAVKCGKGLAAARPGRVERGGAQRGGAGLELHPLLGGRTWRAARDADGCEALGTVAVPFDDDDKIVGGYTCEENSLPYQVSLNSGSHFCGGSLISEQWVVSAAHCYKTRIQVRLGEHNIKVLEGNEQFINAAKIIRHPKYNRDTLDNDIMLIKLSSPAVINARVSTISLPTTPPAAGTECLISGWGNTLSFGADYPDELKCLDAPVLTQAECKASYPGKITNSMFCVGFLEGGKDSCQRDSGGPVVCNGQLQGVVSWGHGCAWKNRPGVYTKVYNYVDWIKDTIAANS
Method: as §1, §2

urokinase = urokinase (Homo sapiens, UniProt P00749); test: Specificity: effect on enzyme activity of urokinase (substrate S-2444); assay type: biochemical
Method: as §1, §2

plasmin = target: T8, plasmin (Homo sapiens, UniProt P00747); test: Specificity: effect on enzyme activity of plasmin (substrate S-2403); assay type: biochemical
T8 construct: Human plasmin, thrombin and plasma kallikrein were from Sigma; purchased Sigma
T8 sequence (P00747 97-580 partner limits assumed): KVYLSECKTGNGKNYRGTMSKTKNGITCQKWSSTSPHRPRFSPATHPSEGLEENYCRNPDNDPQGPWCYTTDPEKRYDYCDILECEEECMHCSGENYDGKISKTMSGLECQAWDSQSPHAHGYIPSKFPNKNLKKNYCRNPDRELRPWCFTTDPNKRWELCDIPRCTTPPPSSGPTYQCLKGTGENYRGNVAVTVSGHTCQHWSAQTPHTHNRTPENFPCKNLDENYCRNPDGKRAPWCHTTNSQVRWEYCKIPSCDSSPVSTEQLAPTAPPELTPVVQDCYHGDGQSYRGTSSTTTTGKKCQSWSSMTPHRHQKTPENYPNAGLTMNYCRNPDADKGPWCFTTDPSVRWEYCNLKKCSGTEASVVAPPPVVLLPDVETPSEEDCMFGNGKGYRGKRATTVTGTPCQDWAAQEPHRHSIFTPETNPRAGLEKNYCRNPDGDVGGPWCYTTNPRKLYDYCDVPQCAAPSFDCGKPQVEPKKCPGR
T8 sequence (P00747 581-810 limits assumed): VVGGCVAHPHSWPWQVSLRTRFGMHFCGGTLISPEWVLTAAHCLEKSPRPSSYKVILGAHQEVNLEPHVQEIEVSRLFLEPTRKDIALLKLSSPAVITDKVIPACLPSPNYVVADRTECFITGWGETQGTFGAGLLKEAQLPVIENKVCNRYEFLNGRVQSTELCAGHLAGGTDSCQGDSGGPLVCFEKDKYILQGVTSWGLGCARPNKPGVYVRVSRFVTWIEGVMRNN
Method: as §1, §2

thrombin = target: T9, thrombin (Homo sapiens, UniProt P00734); test: Specificity: effect on enzyme activity of thrombin (substrate S-2238); assay type: biochemical
T9 construct: Human plasmin, thrombin and plasma kallikrein were from Sigma; purchased Sigma
Method: as §1, §2

hK2 [3] = target: T1, hK2; test: Effect of the peptides on the enzyme activity of hK2 (chromogenic substrate S-2302); assay type: biochemical; settings: S-2302 200 μM, 0.17 μM hK2, 0-400 μM peptide; read-out: IC50 for hK2 inhibition

## 15 (GPARRPFPVTAG) [compound 15]
hK2 [1]
  inhibition (percent inhibition of hK2): 49%

## 31 (GPARRPFPVTAG) [compound 31]
hK2 [1]
  inhibition (percent inhibition of hK2): 58%

## 55 (SRFKVWWAAG) [compound 55]
hK2 [1]
  inhibition (percent inhibition of hK2): 79%

## 57 (SRFKVWWAAG) [compound 57]
hK2 [1]
  inhibition (percent inhibition of hK2): 27%

## 63 (SRFKVWWAAG) [compound 63]
hK2 [1]
  inhibition (percent inhibition of hK2): 78%

## 64 (SRFKVWWAAG) [compound 64]
hK2 [1]
  inhibition (percent inhibition of hK2): 85%

## 69 (SRFKVWWG) [compound 69]
hK2 [1]
  inhibition (percent inhibition of hK2): 79%

## 73 (SRFKVWWG) [compound 73]
hK2 [1]
  inhibition (percent inhibition of hK2): 82%

## AARRPFPAPS [HK2p02]
Plasma kallikrein
  effect on activity of plasma kallikrein: no inhibition
hK2 [2]
  inhibition of the binding of the phage carrying the corresponding peptide: inhibited efficiently
PSA
  effect on activity of PSA: no inhibition
Human trypsin 1
  effect on activity of human trypsin 1: no inhibition
α-chymotrypsin
  effect on activity of α-chymotrypsin: no inhibition
Bovine trypsin
  effect on activity of bovine trypsin: no inhibition
hK2 [1]
  inhibition of hK2 enzyme activity: slight inhibition
  effect on the enzyme activity of hK2: significant reduction
Trypsin 2
  effect on activity of human trypsin 2: no inhibition
Trypsin 3
  effect on activity of human trypsin 3: no inhibition
urokinase
  effect on activity of urokinase: no inhibition
plasmin
  effect on activity of plasmin: no inhibition
thrombin
  effect on activity of thrombin: no inhibition

## ARFKVWWAAG [SEQ ID NO 56, A, R ,F, K, V, W, W, A, A, G]
hK2 [3]
  IC50: 2.2 µM
hK2 [1]; Lineweaver-Burke Plot
  type of inhibition of hK2: competitive inhibitor

## C3AARRPAPAPCG (CAARRPAPAPCG; disulfide 1-11 (inferred)) [BTK144-18c]
hK2 [1]; FIG. 3
  effect of cyclic peptides on hK2 protease activity: slight inhibitory effect

## CFRQGCWVIT [HK2p04]
hK2 [1]
  effect on the enzyme activity of hK2: did not show any effect

## CYRMPTCMQRD [HK2p06]
hK2 [2]
  inhibition of the binding of the phage carrying the corresponding peptide: inhibited efficiently
hK2 [1]
  effect on the enzyme activity of hK2: did not show any effect

## FRTCLRSWACM [HK2p05]
hK2 [2]
  inhibition of the binding of the phage carrying the corresponding peptide: not inhibited

## PARRPFPVTA [HK2p03]
Plasma kallikrein
  effect on activity of plasma kallikrein: no inhibition
hK2 [2]
  inhibition of the binding of the phage carrying the corresponding peptide: inhibited efficiently
PSA
  effect on activity of PSA: no inhibition
Human trypsin 1
  effect on activity of human trypsin 1: no inhibition
α-chymotrypsin
  effect on activity of α-chymotrypsin: no inhibition
Bovine trypsin
  effect on activity of bovine trypsin: no inhibition
hK2 [1]
  inhibition of hK2 enzyme activity: slight inhibition
  effect on the enzyme activity of hK2: significant reduction
Trypsin 2
  effect on activity of human trypsin 2: no inhibition
Trypsin 3
  effect on activity of human trypsin 3: no inhibition
urokinase
  effect on activity of urokinase: no inhibition
plasmin
  effect on activity of plasmin: no inhibition
thrombin
  effect on activity of thrombin: no inhibition

## SRFKVWWAAG-OH [HK2p01, SRFKVWWAAG]
Plasma kallikrein
  effect on activity of plasma kallikrein: no inhibition
hK2 [2]
  inhibition of the binding of the phage carrying the corresponding peptide: inhibited efficiently
PSA
  effect on activity of PSA: no inhibition
Human trypsin 1
  effect on activity of human trypsin 1: no inhibition
α-chymotrypsin
  effect on activity of α-chymotrypsin: no inhibition
Bovine trypsin
  effect on activity of bovine trypsin: no inhibition
hK2 [1]
  inhibition of hK2 enzyme activity: slight inhibition
  effect on the enzyme activity of hK2: significant reduction
Trypsin 2
  effect on activity of human trypsin 2: no inhibition
Trypsin 3
  effect on activity of human trypsin 3: no inhibition
urokinase
  effect on activity of urokinase: no inhibition
plasmin
  effect on activity of plasmin: no inhibition
thrombin
  effect on activity of thrombin: no inhibition
